From patent US10434074B2, “Peptide and small molecule agonists of EPHA and uses thereof” (CASE WESTERN RESERVE UNIVERSITY, priority 2004, dated 2019)

Experiments:
[1] = test system: DU-145 cells; assay: Scattering onto immobilized ligand (SOIL) assay; format: cell-based, human; conditions: 48 hours
Method: FIGS. 2(A-E) illustrate EphA activation inhibited DU-145 cell migration. (A) Expression of c-Met is elevated in cell lines derived from more malignant prostate cancer. Total cellular proteins were immunoblotted with anti-human c-Met. An anti-tubulin blot was used as a control for protein loading. (B) In a modified Boyden chamber assay, DU-145 cells were placed in the upper chamber and allowed to migrate to the lower chamber containing indicated reagents. After 8 hours, cells were stained with crystal violet and cells remaining in the upper chamber were removed. Top panel: Cells migrated to the undersides of membrane were counted; six high power fields were counted. Results represent means±S.D. Representative fields were shown in the lower panel. (C) Ephrin-A1-Fc inhibits DU-145 cell migration when HGF/SF was uniformly presented in both sides of membranes. The experiment was carried out as described in A. (D) Inhibition of cell scattering by immobilized ephrin-A1 in a SOIL assay (Method). Ephrin-A1-Fc or control Fc was immobilized on 6-well culture dishes. Freshly confluent DU-145 cells on cover slips were transferred to the coated surfaces. Cells were stimulated with HGF/SF to induce migration off the cover slips to immobilized Fc or ephrin-A1-Fc. […] The wound healing was recorded prior to and 12 hours after the addition of Fc, ephrin-A1-Fc (1 μg/ml) and/or HGF/SF (20 ng/ml). […]

[2] = test system: GFP-PC-3 cells; assay: PC3 xenograft growth in nude mice; format: in vivo; set-up: s.c. tumor growth: dose or concentration left out as unconfirmed
Source text: Frozen sections were stained with biotinylated rabbit anti-human Fc, and HRP-conjugated streptoavidin.

[3] = biological target: T1, EphA2 (Mus musculus, UniProt Q03145); assay: EphA activation and ERK1/2 in primary keratinocytes; format: cell-based
T1 construct: endogenous in cells; host or cells: primary keratinocytes from newborn (P1) mouse epidermis
Method: (§1) FIGS. 43(A-C) illustrate EphA2 kinase is required for ephrin-A1-induced inhibition of ERK1/2 MAP kinase and growth suppression in primary keratinocytes. A) EphA kinase activation by ephrin-A1 in EphA2^+/+ and EphA2^+/− but not EphA2^−/− keratinocytes. Keratinocytes were isolated from newborn (P1) mice and cultured on matrigel-coated culture plates. They were stimulated with 1.0 μg/ml of ephrin-A1-Fc for 10 min. The unstimulated cells were used as control. EphA receptors including EphA2 were precipitated from the cell lysates using ephrin-A1-Fc, and were subjected to immunoblot analysis with rabbit polyclonal anti-phospho-EphA/B antibody. Membrane was stripped and blotted again for total EphA2. B) Ephrin-A1 stimulation leads to inactivation of ERK1/2 MAPK in EphA2^+/+ and EphA2^+/− but not EphA2^−/− keratinocytes. Total cell lysates were analyzed by immunoblot with the indicated antibodies. The band densities from p-ERK blot were normalized to the corresponding total ERK1 blot. The ratios of p-ERK between ephrin-A1-treated and untreated were shown in the lower panel. C). Ephrin-A1 stimulation inhibits clonal growth of EphA2^+/+ and EphA2^+/− but not EphA2^−/− keratinocytes. Primary keratinocytes were plated on 6-well plates coated with matrigel at 5,000 cells/well, and allowed to grow for 12 days in the presence of Fc (0.5 μg/ml) or ephrin-A1-Fc (1.0 μg/ml).
(§2) To determine cellular mechanisms underlying the increased susceptibility to skin tumorigenesis, primary keratinocytes were isolated and cultured from epidermis of neonatal (P1) mice. They were stimulated with ephrin-A1 fused to the heavy chain of human IgG1 (ephrin-A1-Fc). EphA kinases including EphA2 were precipitated with excess ephrin-A1-Fc, and blotted with antibody raised against phosphorylated dityrosine peptide that is highly conserved in the juxtamembrane region of all Eph kinases. Phosphorylation of this region has been correlated with Eph receptor activation.
(§3) Primary keratinocytes were isolated from neonatal mouse skin as described previously (Caldelari et al., 2000). Briefly, the entire P1 mouse skin was dissected and incubated with 5 U/ml dispase II (Boehringer Mannheim) overnight at 4° C. Epidermal layer was separated from dermal layer using forceps, minced and digested with 0.25% trypsin/0.05 mMEDTA. After neutralizing trypsin by washing with serum-containing medium, cells were filtered through sterile gauze pads, spun down and resuspended in serum-free keratinocytes culture medium (Gibco) containing pituitary extract, 5 ng/ml EGF, 100 U/ml penicillin, 0.1 mg/ml streptomycin, and 0.25 μg/ml amphotericin, and plated on 6-well plates precoated with 50 μg/ml matrigel. Cell stimulation with ephrin-A1-Fc, immunoprecipitation, and immunoblot were carried as described preciously (Miao et al., 2003; Miao et al., 2005).

[4] = test system: EphA2; assay: as above; format: cell-based, mouse
Method: as §1, §2, §3

T1 sequence (Q03145 26-977): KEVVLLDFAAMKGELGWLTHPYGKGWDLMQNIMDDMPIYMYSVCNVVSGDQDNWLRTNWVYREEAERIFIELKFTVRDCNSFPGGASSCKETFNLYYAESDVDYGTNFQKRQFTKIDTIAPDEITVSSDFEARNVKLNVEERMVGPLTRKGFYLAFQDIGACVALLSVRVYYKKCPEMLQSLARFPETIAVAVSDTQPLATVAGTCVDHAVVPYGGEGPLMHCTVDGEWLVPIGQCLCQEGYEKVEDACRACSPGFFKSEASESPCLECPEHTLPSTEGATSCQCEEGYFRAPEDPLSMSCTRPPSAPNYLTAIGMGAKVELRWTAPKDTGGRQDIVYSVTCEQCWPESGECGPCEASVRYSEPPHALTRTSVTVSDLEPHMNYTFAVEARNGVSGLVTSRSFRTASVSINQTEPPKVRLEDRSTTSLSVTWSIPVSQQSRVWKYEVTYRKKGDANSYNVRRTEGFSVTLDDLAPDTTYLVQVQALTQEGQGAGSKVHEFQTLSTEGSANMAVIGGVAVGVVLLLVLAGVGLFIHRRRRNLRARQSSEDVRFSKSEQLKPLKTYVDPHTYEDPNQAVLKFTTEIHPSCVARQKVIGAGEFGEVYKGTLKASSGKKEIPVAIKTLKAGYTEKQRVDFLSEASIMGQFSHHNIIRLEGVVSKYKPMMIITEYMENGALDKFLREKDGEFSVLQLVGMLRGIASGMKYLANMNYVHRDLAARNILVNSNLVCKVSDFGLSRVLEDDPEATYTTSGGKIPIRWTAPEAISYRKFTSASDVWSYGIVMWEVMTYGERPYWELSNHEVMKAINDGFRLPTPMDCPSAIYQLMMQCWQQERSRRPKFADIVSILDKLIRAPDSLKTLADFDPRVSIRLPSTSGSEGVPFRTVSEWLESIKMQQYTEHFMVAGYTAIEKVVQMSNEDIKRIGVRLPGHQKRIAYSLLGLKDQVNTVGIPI

ERK1/2 activities ([3]; heterozygous keratinocytes): intermediate response
EphA2 activation ([3]; wild type and heterozygous keratinocytes): readily activated
ERK1/2 activities ([3]; wild type keratinocytes): significantly attenuated
B1: ephrin-A1-Fc: ephrin-A1 dimerized by fusion to the heavy chain of human IgG1 (protein)
chain: DRHTVFWNSSNPKFRNEDYTIHVQLNDYVDIICPHYEDHSVADAAMEQYILYLVEHEEYQLCQPQSKDQVRWQCNRPSAKHGPEKLSEKFQRFTPFTLGKEFKEGHSYYYISKPIHQHEDRCLRLKVTVSGKITHSPQAHDNPQEKRLAADDPEVRVLHSIGHS
modifications: left off: a dimerising Fc or GST
notes: ephrin-A1 dimerized by fusion to the heavy chain of human IgG1
HGF/SF-induced cell migration off cover slips [1]: significantly reduced
basal cell migration off cover slips [1]: reduced basal levels of cell migration off cover slips
targeting to tumors ([2]; frozen sections stained with anti-human Fc): target to GFP-PC-3 tumors
tumor growth after three weeks of treatment ([2]; i.p.): lack of effects after three weeks of treatment
s.c. tumor growth ([2]; i.p., vs human IgG): inhibited s.c. tumor growth
p-EphA/B signal ([4]; EphA2-null keratinocytes): undetectable
ERK1/2 activities ([4]; EphA2 homozygous deletion): completely abolished the inhibitory effects
